Kd data for two molecules are collected here from publication PMC7170532 (2020).

Assay [1] has as its target T1, pro-myostatin (uncleavable precursor, D99A/R263A/R266A) (human, UniProt O14793 24-375, D99A | R263A | R266A).
T1 sequence: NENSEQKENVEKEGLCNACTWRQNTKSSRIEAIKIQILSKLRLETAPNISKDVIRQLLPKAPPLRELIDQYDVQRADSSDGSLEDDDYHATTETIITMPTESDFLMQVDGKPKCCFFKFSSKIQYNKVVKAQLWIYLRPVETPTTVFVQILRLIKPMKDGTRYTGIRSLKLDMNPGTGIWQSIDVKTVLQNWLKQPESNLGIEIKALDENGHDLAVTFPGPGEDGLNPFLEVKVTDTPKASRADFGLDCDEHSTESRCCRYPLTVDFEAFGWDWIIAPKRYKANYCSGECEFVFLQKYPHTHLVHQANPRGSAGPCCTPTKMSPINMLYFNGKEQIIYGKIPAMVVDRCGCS
Briefly: BLI. (In general: BLI is a label-free optical method that tracks binding on a fibre tip over time.)

For another assay, the target named is latent myostatin (human, UniProt O14793 267-375). Briefly: BLI.

B1: 29H4-16 human IgG4 (antibody, V domains shown)
VH: QIQLVQSGGGVVQPGRSLRLSCAASGFTFSSYGMHWVRQAPGKGLEWVAVISYDGSRKYYADSVKGRFTISRDNSKNTLYLQMNSLRAEDTAVYYCARDLLVRFLYWSHYYGMDVWGQGTTVTVSS
VL: QPVLTQPPSASGTPGQRVTISCSGSSSNIGSNPVHWYQQLPGTAPKLLIYDDNQRPSGVPDRFSGSKSGTSASLVISGLQSDDEADYYCAAWDDSLNSVFGGGTKLTVL
As usually defined, the Kd is the concentration at which binding is half-saturated. A high value points to weaker binding. Turning to B1, the Kd (in assay [1]; with latent myostatin) was below 0.001 nM in each case.

B2: 29H4-16 Fab (Fab, V domains shown)
VH: B1 VH
VL: B1 VL
With B2, the Kd in assay [1] came out at 1.51 nM; with latent myostatin it was 1.76 nM.
